From patent US20220160699, “MODULATORS OF TDP-43” (Alteron Therapeutics, Inc., published 2022) come the findings set out here.

In this data set the target is TDP-43 (TARDBP) (UniProt Q13148 Q13148:1-414). Put plainly: pulldown; streptavidin bead pulldown and anti-TDP-43 Western; 20 mM HEPES pH 7.5, 0.3% CHAPS, 150 mM NaCl, on ice/4 C; binding blocked by 30 uM ALT-59, and complex displaced by ALT-59. To be noted: tags: N-terminal His-Sumo, expressed in E. coli Rosetta (DE3) from pSumo/TDP43; label: 3' biotin. Here is the method:
Additional experiments were performed to confirm the direct binding of ALT-59 to TDP-43. One microgram of purified His-Sumo-TDP43 was incubated with 1 μg TG₁₂-biotin ([…]-biotin (SEQ ID NO: 1)) in binding buffer containing 20 mM HEPES, pH 7.5, 0.3% CHAPS, 150 mM NaCl, (Sigma-Aldrich), and protease inhibitor cocktail (Roche) for 4 hours on ice in the presence of carrier (50% Cremophor EL, 50% absolute ethanol) or 30 μM ALT-59 dissolved in carrier. Streptavidin magnetic beads (20 μl settled beads, GE Healthcare Life Sciences) were added to pull down the DNA-protein complex by rotating at 4° C. for 2 hours. After being washed 5 times with binding buffer, samples were boiled in protein sample buffer. In another experiment, DNA-protein complex bound to Streptavidin magnetic beads were washed and split into three parts, two of which were incubated with either carrier or ALT-59 for 4 hours with rotation at 4° C. to elute TDP-43 from TG₁₂-biotin-streptavidin. The third part and elutes were mixed with protein sample buffer and boiled. Protein samples from the above experiments were loaded onto 4-20% Tris-glycine gel (Invitrogen) for fractionation. Western blotting was performed using anti-TDP-43 antibody (Proteintech Group).

Sequence of TDP-43 (TARDBP) (Q13148 whole entry, one chain of several): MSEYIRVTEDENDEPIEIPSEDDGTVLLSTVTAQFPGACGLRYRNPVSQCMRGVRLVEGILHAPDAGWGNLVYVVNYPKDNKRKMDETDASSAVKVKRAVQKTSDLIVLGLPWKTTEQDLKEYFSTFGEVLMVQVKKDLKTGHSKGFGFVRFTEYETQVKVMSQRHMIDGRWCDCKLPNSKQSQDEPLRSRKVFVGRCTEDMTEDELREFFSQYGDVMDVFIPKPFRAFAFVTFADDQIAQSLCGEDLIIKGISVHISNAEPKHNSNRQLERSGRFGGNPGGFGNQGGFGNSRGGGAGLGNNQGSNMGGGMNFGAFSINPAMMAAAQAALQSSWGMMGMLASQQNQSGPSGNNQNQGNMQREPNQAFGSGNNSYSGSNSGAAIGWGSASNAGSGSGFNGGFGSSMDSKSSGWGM

B1: TG12-biotin (ssDNA)
DNA: TGTGTGTGTGTGTGTGTGTGTGTG
Regarding B1, the binding result is “binds”.
